Assay results reported in US20220324988A1 (NANKAI UNIVERSITY, published 2022).

T1: human OX40 (Acrobiosystems, OX 0-H5224) (human, UniProt P43489 29-216)
T1 construct: Bought protein
T1 sequence (looked up): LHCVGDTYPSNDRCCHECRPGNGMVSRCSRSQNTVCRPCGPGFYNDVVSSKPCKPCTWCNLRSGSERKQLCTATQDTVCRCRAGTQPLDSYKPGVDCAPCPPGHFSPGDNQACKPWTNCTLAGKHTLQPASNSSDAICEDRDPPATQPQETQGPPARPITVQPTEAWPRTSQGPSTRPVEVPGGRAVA


Experiments:
[1] = molecular target: T2, human CD40 recombinant protein (Acrobiosystems, CD 0-H5228) (human, UniProt P25942 21-193); assay: direct ELISA, coated human CD40 1 µg/ml, anti-human Fc-HRP
T2 construct: Bought protein
Experimental: The antibodies were incubated at room temperature for 30 min, and washed 8 times with 0.05% PBS-Tween.

[2] = molecular target: T3, human CD40 expressed on cells (human, UniProt P25942 21-277); assay: cell-based or functional assay
[3] = molecular target: T4, human 4-1BB (Acrobiosystems, 41B-H5227) (human, UniProt Q07011 24-186); assay: direct ELISA, coated human 4-1BB 1 µg/ml, anti-human Fc-HRP
T4 construct: Bought protein
Experimental: (§1) PBS solutions containing 1 μg/ml of human OX40 (Acrobiosystems, OX 0-H5224), 4-1BB (Acrobiosystems, 41B-H5227), GITR (Acrobiosystems, GIR-H5228) and CD40 (Acrobiosystems, CD 0-H5228) were coated on the ELISA plates and incubated overnight at 4° C. […] After 30 mins of incubation at room temperature, washing was carried out for 8 times with 0.05% PBS-Tween.

[4] = molecular target: T3, human CD40 expressed on cells; assay: flow cytometry on 293FT cells expressing human CD40
Experimental: (§2) Cells expressing Rhesus monkey CD40 and human CD40, respectively, were obtained after 48 h of expression.
(§3) GraphPad Prism 6.0 was used to fit the curves and calculate EC50.

[5] = molecular target: T2, human CD40 recombinant protein …; assay: SPR (Biacore T200), antibody captured on Protein A chip, CD40 as analyte
Experimental: The antigen to be tested, i.e. human CD40 recombinant protein (Acrobiosystems, CD 0-H5228) was diluted gradiently with a Running buffer (HBS-EP+, GE) at concentrations of 2 μM, 1 μM, 500 nM, 250 nM, 125 nM, 62.5 nM, 31.25 nM. The above-mentioned CD40 with different concentrations was flowed through the chip on which the antibody was captured at a flow rate of 30 μL/min for 120 s of binding, and then the Running buffer was flowed through the chip at a flow rate of 30 μL/min for 240 s, with the antigen dissociating gradually from the chip on which the antibody was captured. Data processing was performed using BIAevaluation software S200, the necessary software of Biacore T200 instrument and binding constants (Ka), dissociation constants (Kd), and equilibrium dissociation constants (KD) were calculated.

[6] = molecular target: T5, Rhesus monkey CD40 expressed on 293FT cells (Rhesus monkey (Macaca mulatta), UniProt F6SNI1 21-278); assay: flow cytometry on 293FT cells expressing Rhesus CD40
T5 construct: whole, on cells; also called Rhesus CD40
Experimental: as §2, §3

[7] = molecular target: T1, human OX40 (Acrobiosystems, OX 0-H5224); assay: direct ELISA, coated human OX40 1 µg/ml, anti-human Fc-HRP
Experimental: as §1

T2 sequence (P25942 21-193 limits assumed): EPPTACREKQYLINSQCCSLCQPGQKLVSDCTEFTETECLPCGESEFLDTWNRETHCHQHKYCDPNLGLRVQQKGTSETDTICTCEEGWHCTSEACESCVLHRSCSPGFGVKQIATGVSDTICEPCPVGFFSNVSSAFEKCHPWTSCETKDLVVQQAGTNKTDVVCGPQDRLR
T3 sequence (P25942 21-277): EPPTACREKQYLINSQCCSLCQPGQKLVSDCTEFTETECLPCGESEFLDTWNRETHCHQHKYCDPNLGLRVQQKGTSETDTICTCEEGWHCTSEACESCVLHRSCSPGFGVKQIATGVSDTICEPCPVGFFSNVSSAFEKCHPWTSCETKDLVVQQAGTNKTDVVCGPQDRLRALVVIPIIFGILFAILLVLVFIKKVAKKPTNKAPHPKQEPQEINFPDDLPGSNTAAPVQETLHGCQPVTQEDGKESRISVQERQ
T4 sequence (Q07011 24-186): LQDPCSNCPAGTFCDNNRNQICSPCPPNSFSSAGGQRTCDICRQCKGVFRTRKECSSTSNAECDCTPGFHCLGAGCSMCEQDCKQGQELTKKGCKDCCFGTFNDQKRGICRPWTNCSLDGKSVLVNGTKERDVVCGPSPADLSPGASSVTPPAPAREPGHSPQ

Binder	EC50 of activation of the NF-kB-GFP+hCD40 reporter cell line, cross-linked with goat anti-human Fc [2] [nM]	fold improvement of reporter cell activity against wild type NK003 [2] [times]	EC50 of activation of the NF-κB-GFP+hCD40 reporter cell line, cross-linked with goat anti-human Fc [2] [nM]	Kd [5] [nM]	koff [5] [s⁻¹]	kon [5] [M⁻¹ s⁻¹]	further results
HEL (antibody, human IgG1, kappa, V domains shown, IgG1 negative control antibody; also called negative control HEL; HEL control antibody) VH: EVQLEQSGAELMKPGASVKISCKATGYTFTTYWIEWIKQRPGHSLEWIGEILPGSDSTYYNEKVKGKVTFTADASSNTAYMQLSSLTSEDSAVYYCARGDGFYVYWGQGTTLTVSS VL: DIELTQSPATLSVTPGDSVSLSCRASQSISNNLHWYQQKSHESPRLLIKYTSQSMSGIPSRFSGSGSGTDFTLSINSVETEDFGVYFCQQSGSWPRTFGGGTKLDIKR							binding result [1]: no binding (tested: 500 nM)
NK003-AM-18 (antibody, human IgG1, kappa, V domains shown) VH: not shown VL: DVVMTQSPLSLPVTPGESATISCRSSQSLLYSNGYNYLDWYLLKPGQSPQLLIYLGSNRASGVPDRFSGSGSGTDFTLKISRVEAEDVGLYYCMQQLEQPYTFGQGTKLEIKR	0.3	~10					
NK003 (antibody, human IgG1, kappa, V domains shown, also called antibody NK003; wild type NK003) VH: not shown VL: DVVMTQSPLSLPVTPGESATISCRSSQSLLYSNGYNYLDWYLLKPGQSPQLLIYLGSNRASGVPDRFSGSGSGTDFTLKISRVEAEDVGLYYCMQGLETPYTFGQGTKLEIKR			2	331	0.0121	36700	EC50 of apoptosis of Raji cells (CD95 expression, MFI), cross-linked with goat anti-human Fc [2]: 2.6 nM; EC50 of apoptosis of Ramos cells (CD95 expression, MFI), cross-linked with goat anti-human Fc [2]: 3 nM; binding result [3]: no binding; EC50 [4]: 10 nM; EC50 [6]: 8 nM; binding result [7]: no binding
NK003-AM-9 (antibody, human IgG1, kappa, V domains shown) VH: not shown VL: DVVMTQSPLSLPVTPGESATISCRSSQSLLYSNGYNYLDWYLLKPGQSPQLLIYLGSNRASGVPDRFSGSGSGTDFTLKISRVEAEDVGLYYCMNGLEVPYTFGQGTKLEIKR	0.25	~10					

Further lines, with some results ahead:

EC50 of activation of the NF-kB-GFP+hCD40 reporter cell line, cross-linked with goat anti-human Fc [2] [nM]	fold improvement of reporter cell activity against wild type NK003 [2] [times]	EC50 of activation of the NF-κB-GFP+hCD40 reporter cell line, cross-linked with goat anti-human Fc [2] [nM]	Kd [5] [nM]	koff [5] [s⁻¹]	kon [5] [M⁻¹ s⁻¹]	Binder	further results
		0.35				NK003-AM-18-EP1 (antibody, human IgG1, kappa, V domains shown) VH: not shown VL: DVVMTQSPLSLPVTPGESATISCRSSQSLLYSNGYNYLDWYLLKPGQSPQLLIYLGSNRASGVPDRFSGSGSGTDFTLKISRVEAEDVGLYYCMQQLEQPYTFGQGTKLEIKR	
			440	0.039	88700	NK004 (antibody, human IgG1, kappa, V domains shown, also called antibody NK004) VH: QVQLVESGGGLVQPGRSLRISCAGSGFTFGDSAMHWVRQAPGKGLEWVSGISRNSDTIVYADSVKGRFTISRDNAKNSLYLQMNSLRAEDTALYYCARRSGDHHAMDVWGPGTTVTVSS VL: ETTLTQSPATLSLSPGERATLSCRASQSVNTYLAWYQQKPGQAPRLLMYDSSSRATGIPDRFSGSGSGTDFTLTISRLEPEDFAVYYCQQYSTVPLTFGGGTKLEIKR	EC50 of activation of the NF-κB-GFP+hCD40 reporter cell line, with the addition of the secondary antibody [2]: 4 nM; EC50 (read off the curve) [1]: ~0.7 nM
